Test results: patent publication US9243044B2, “Anticoagulant polypeptide and applications thereof” (GUANGDONG MEDICAL COLLEGE, priority 2011, dated 2016)
Entries after “also recorded” stand apart in the source; their conditions may differ.

Key:
normal human plasma [1] = experiment: aPTT assay in normal human plasma; format: biochemical; conditions: for aPTT: normal human plasma; for multiples of prolonging aPTT: ratio of mean aPTT to blank control
Description: (§1) The recombinant anticoagulant polypeptides were expressed in Escherichia coli and purified in our laboratory. Anticoagulant activity was determined by measuring the aPTT and PT.
For the aPTT assay, 10 μl recombinant protein at various concentrations was mixed with 50 μl fresh normal human plasma, 20 μl aPTT reagent (MDC Hemostasis, Germany) and incubated for 15 mins at 37° C. 20 μl 0.05 mol/L prewarmed CaCl2 was then added to initiate the clotting reaction. The clotting time was measured with the absorbance at 630 nm by using an E1x808 kinetic microtiter reader (BioTek, United States). Each concentration was repeated 3 times. The ratio of the mean aPTT value of each concentration to blank control group is multiples of prolonging the aPTT.

normal human plasma [2] = experiment: PT assay in normal human plasma; format: biochemical; conditions: for PT: normal human plasma
Description: as §1
For the PT assay, 10 μl recombinant protein at various concentration was mixed with 45 μl normal human plasma and incubated for 15 mins at 37° C. 45 μl prewarmed PT reagent (MDC Hemostasis, Germany) was then added and the clotting time was measured with the absorbance at 630 nm by using an E1x808 kinetic microtiter reader (BioTek, United States). Each concentration was repeated 3 times.

human fXIa = target: T1, human fXIa (Homo sapiens, UniProt P03951); experiment: Chromogenic assay, fXIa; format: biochemical
T1 construct: Human coagulation factors IIa (thrombin), Xa, XIa, XIIa, EGR-fXa; purchased Haematologic Technologies Inc (United States)
Source text: (§2) The recombinant anticoagulant polypeptides in the present invention were expressed in E. coli and purified in our laboratory, of which the activities against coagulation factors were investigated by chromogenic assays. Human coagulation factors IIa (thrombin), Xa, XIa, XIIa, EGR-fXa were products of Haematologic Technologies Inc (United States). Recombinant fVIIa was products of Novo-Nordisk (Denmark). Recombinant soluble tissue factor (sTF) was purchased from Protgen (Beijing, China). The following chromogenic substrates were used for these coagulation factor assays: S2765 for human fXa, S2288 for human fVIIa and fIIa, 52366 for human fXIa and fXIIa, respectively.
(§3) The chromogenic assays were carried out in a total reaction volume of 100 μl in individual wells of a 96-well microtiter plate. 50 μl fIIa, fXa, fXIa, or fXIIa (final concentration: 1 nM) was incubated with 10 μl recombinant anticoagulant polypeptide at various concentrations (or PBS control group) Assays for the detection activity of fVIIa: 50 μl fVIIa+TF (1 μM) and EGR-fXa (final concentration 500 nM) was incubated for 15 mins at 25° C., respectively. After the addition of 40 μl of prewarmed chromogenic substrate to a final concentration of 400 μM, the changes of absorbance at 405 nm were monitored by using an E1x808 kinetic microtiter reader. The data were used to calculate the velocities of response.

human fIIa (thrombin) = target: T2, human fIIa (thrombin) (Homo sapiens, UniProt P00734); experiment: Chromogenic assay, fIIa (thrombin); format: biochemical
T2 construct: Human coagulation factors IIa (thrombin), Xa, XIa, XIIa, EGR-fXa; purchased Haematologic Technologies Inc (United States)
Source text: as §2, §3

fVIIa/TF = target: T3, fVIIa/TF (Homo sapiens, UniProt P08709); experiment: Chromogenic assay, fVIIa/TF; format: biochemical
T3 construct: Recombinant fVIIa was products of Novo-Nordisk (Denmark); purchased Novo-Nordisk (Denmark) for fVIIa; Protgen (Beijing, China) for sTF; Haematologic Technologies Inc for EGR-fXa
Source text: as §2, §3

SD rats [3] = experiment: Rat arterio-venous shunt thrombus formation model; format: in vivo
Description: 50 SPF grade male SD rats (provided by the laboratory animal center of Guangdong Medical College, 300-350 g body weight) were randomly divided into saline control group, positive control group (100 U·kg^−1 heparin sodium, Shanghai No. 1 Biochemical & Pharmaceutical Co. Ltd), and rNAPT-1 low dose (100 μg·kg^−1), middle dose (1 mg·kg^−1), high dose group (5 mg·kg^−1), 10 rats each group, respectively. These rats were anaesthetized with 10% chloral hydrate (250 mg/kg) by intraperitoneal injection. The right common carotid artery and left external jugular vein was exposed and dissected bluntly from the surrounding tissue after a surgical incision. One end of a polyethylene pipe (1.5 mm of diameter, 22 cm of length) with a 5 cm length of No. 4 operation suture in it and filled with 50 U/mL heparin solution was inserted into the right common carotid artery, and the other end was inserted into the left external […] vein. 5 min after tail intravenous injection of drugs, the artery clamp was opened, and blood flow from the right common carotid artery to the left external jugular vein through the polyethylene pipe. After 15 min of blood flow, the suture line was quickly removed and weighed. The net weight of thrombus is total weight minus suture weight; inhibition rate=(wet weight of thrombus of saline control group−wet weight of thrombus of administration group)/wet weight of thrombus of saline control group×100%.

SD rats [4] = experiment: Rat clotting time after i.v. injection, aPTT; format: in vivo; conditions: for Clotting time aPTT: rat plasma 2 min after injection
Description: 40 SPF grade male SD rats (provided by the laboratory animal center of Guangdong Medical College, 300-350 g body weight) were randomly divided into a line group, and rNAPTin-1 low-dose (100 μg·kg^−1), middle-dose (1 mg·kg^−1), high dose group (5 mg·kg^−1), 10 rats each group. 2 min after intravenous injection of various rNAPTin-1, blood was harvested from animal heart, and injected into an anticoagulant tube (3.8% sodium citrate). Animal plasma was separated by centrifugation (1500×g, 10 mins) and was used to measure aPTT and PT.

T3 sequence (P08709 61-212 limits assumed): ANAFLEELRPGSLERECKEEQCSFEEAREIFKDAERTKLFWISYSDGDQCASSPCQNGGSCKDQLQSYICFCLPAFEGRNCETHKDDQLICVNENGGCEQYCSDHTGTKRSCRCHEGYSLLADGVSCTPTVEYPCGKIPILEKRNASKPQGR
T3 sequence (P08709 213-466 limits assumed): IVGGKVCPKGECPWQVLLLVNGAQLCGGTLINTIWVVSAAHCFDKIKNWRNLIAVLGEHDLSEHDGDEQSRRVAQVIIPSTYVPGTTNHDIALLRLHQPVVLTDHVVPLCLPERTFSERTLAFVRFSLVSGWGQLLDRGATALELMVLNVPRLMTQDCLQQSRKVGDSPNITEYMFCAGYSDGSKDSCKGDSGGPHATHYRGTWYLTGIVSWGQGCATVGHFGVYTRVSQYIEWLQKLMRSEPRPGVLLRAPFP
T3 sequence (P13726 33-251 partner limits assumed): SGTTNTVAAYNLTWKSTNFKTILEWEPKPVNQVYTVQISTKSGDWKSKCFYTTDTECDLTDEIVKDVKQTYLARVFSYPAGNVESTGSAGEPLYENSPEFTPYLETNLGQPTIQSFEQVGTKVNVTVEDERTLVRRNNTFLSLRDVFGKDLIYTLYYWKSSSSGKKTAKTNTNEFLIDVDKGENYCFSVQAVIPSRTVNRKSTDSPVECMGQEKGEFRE
T1 sequence (P03951 19-387 limits assumed): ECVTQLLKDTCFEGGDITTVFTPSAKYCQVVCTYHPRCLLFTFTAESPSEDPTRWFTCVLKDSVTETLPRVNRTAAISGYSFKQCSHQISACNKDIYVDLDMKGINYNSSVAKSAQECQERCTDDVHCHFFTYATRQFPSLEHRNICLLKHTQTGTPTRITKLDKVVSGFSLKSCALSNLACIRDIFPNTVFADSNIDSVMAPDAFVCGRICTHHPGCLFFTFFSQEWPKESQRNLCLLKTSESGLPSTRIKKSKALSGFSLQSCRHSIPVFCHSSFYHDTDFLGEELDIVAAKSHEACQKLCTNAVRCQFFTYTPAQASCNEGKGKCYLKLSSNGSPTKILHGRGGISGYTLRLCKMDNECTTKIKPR
T1 sequence (P03951 388-625 limits assumed): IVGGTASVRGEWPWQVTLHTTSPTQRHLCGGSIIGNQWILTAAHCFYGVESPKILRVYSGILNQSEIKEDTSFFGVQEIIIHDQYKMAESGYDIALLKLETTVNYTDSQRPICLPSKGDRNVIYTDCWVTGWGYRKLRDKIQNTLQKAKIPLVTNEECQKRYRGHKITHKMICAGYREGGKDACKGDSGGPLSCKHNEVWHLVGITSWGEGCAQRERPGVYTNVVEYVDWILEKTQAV

B1: NAPTin-1 (protein)
chain: NPSCGENERHDECSRKECDPKCKYDGTEEKDDEKPVVCLTRVCYGDCICRDGFLRNKNGACVKAEDCELD
modifications: Sequence derived from Ancylostoma caninum or Synthetic
With B1 as the molecule, how does the “prolongation of aPTT (in words)” value (normal human plasma [1]; 100 nM and 500 nM) read?
The value was “significantly prolong aPTT”.

And the “aPTT” value (normal human plasma [1]; 100 nM)?
Its value is 79.2 ± 3.5 s.

What about the “multiples of prolonging aPTT” value (normal human plasma [1]; 100 nM) of the same molecule?
The value was 1.98.

What about the “aPTT” value (normal human plasma [1]; 500 nM) of the same molecule?
The value was 228.3 ± 7.4 s.

And the “multiples of prolonging aPTT” value (normal human plasma [1]; 500 nM)?
The value was 5.69.

And the “prolongation of PT (in words)” value (normal human plasma [2]; 100 nM and 500 nM)?
The value was “couldn't prolong PT”.

What about the “PT” value (normal human plasma [2]; 100 nM) of the same molecule?
The value was 12.4 ± 0.9 s.

And the “PT” value (normal human plasma [2]; 500 nM)?
The value was 12.1 ± 0.4 s.

And the “inhibition of the activity of fXIa” value (human fXIa; 100 nM)?
The value was “more than 90%”.

What about the “inhibition of the activity of fXIa (in words)” value (human fXIa; 200 nM) of the same molecule?
The value was “almost completely inhibited”.

And the “effect on fIIa activity (in words)” value (human fIIa (thrombin); 100 nM)?
The value was “without affecting”.

What about the “effect on fIIa activity (in words)” value (human fIIa (thrombin); 200 nM) of the same molecule?
Its value is “without affecting”.

What about the “effect on fVIIa/TF activity (in words)” value (fVIIa/TF; 100 nM) of the same molecule?
The value was “without affecting; also recorded: no significant inhibitory activity”.

And the “effect on fVIIa/TF activity (in words)” value (fVIIa/TF; 200 nM)?
The value was “without affecting”.

And the “wet weight of thrombus” value (SD rats [3]; 100 μg·kg^−1 i.v.)?
Its value is 8.5 ± 1.8 mg.

And the Inhibition rate % (SD rats [3]; 100 μg·kg^−1 i.v., vs saline control)?
The Inhibition rate % was 80.5%.

What about the “wet weight of thrombus” value (SD rats [3]; 1 mg·kg^−1 i.v.) of the same molecule?
Its value is 1.5 ± 0.3 mg.

What about the Inhibition rate % (SD rats [3]; 1 mg·kg^−1 i.v., vs saline control) of the same molecule?
Its Inhibition rate % is 97%.

What about the “wet weight of thrombus” value (SD rats [3]; 5 mg·kg^−1 i.v.) of the same molecule?
The value was 0.3 ± 0.2 mg.

What about the Inhibition rate % (SD rats [3]; 5 mg·kg^−1 i.v., vs saline control) of the same molecule?
The Inhibition rate % was 99%.

And the “effect on arterio-venous shunt thrombosis (in words)” value (SD rats [3]; vs saline control, P<0.01)?
Its value is “could inhibit rat arterio-venous shunt thrombosis”.

And the “Clotting time aPTT” value (SD rats [4]; 0.1 mg/kg i.v.)?
Its value is 23.5 ± 2.1.

And the “Clotting time aPTT” value (SD rats [4]; 1.0 mg/kg i.v.)?
The value was 56.3 ± 5.1.

And the “Clotting time aPTT” value (SD rats [4]; 5.0 mg/kg i.v.)?
Its value is 136.7 ± 35.5.

And the “effect on rat aPTT (in words)” value (SD rats [4]; 0.1-5 mg/kg i.v.)?
Its value is “prolonged significantly aPTT”.
